PMC3098852

Key:
[1] = molecular target: HIV-1 NefSF2 wild type, full length (1-210), C210A (HIV-1 SF2) (UniProt P03407); assay: ITC
[2] = molecular target: HIV-1 NefSF2 mutant (P76A, P79A, R81A), C210A (HIV-1 SF2) (UniProt P03407); assay: ITC; Nef (40 to 50 µM) in the cell, inhibitor protein (400 to 500 µM) in the syringe; 10 mM Tris/HCl pH 8.0, 100 mM NaCl; 25 °C
[3] = molecular target: HIV-1 NefSF2 wild type, full length (1-210), C210A (HIV-1 SF2) (UniProt P03407); assay: ITC; Nef (40 to 50 µM) in the cell, GST-fused inhibitor protein (400 to 500 µM) in the syringe; 10 mM Tris/HCl pH 8.0, 100 mM NaCl; 15 °C
[4] = molecular target: HIV-1 NefSF2 (Δ1-27), C210A (HIV-1 SF2) (UniProt P03407); assay: ITC
[5] = molecular target: HIV-1 NefSF2 (Δ1-44), C210A (HIV-1 SF2) (UniProt P03407); assay: ITC
[6] = molecular target: HIV-1 NefSF2 (Δ1-58), C210A (HIV-1 SF2) (UniProt P03407); assay: ITC
[7] = molecular target: GST-NI3-9, Hck-SH3 (VSWSPD) - polyGly linker - CD4 cytoplasmic tail (human) (UniProt P08631); assay: SPR; GST-NI3-9 held on a CM5 chip via an anti-GST antibody; hexa-histidine tagged Nef 400-1000 nM flowed at 5 µl/min; 10 mM HEPES pH 8.0, 150 mM NaCl, 0.005% IGEPAL; 25 °C
[8] = molecular target: fluorescence-labelled NI3-3 (human) (UniProt P01730); assay: other fluorescence titration

Row | Substance | Kd [1] | dH [1] | stoichiometry N [1] | other results
1 | GST-NI3-1, CD4 cytoplasmic tail (37 residues) - five residue linker - Hck-SH3 (VSWSPD) (from UniProt P01730 419-458; P08631-1 78-138) (designed binder) | 84 nM | -8.51 kcal/mol | 1.09 | 
2 | GST-NI3-3, CD4 cytoplasmic tail (CQC to SQS) fused to Hck-SH3 (VSWSPD) (from UniProt P01730 419-458; P08631-1 78-138) (designed binder) | 88 nM | -8.64 kcal/mol | 1.12 | 
3 | GST-NI3-4, CD4 cytoplasmic tail (dileucine LL to AA) fused to Hck-SH3 (VSWSPD) (from UniProt P01730 419-458; P08631-1 78-138) (designed binder) | 544 nM | -8.55 kcal/mol | 0.97 | 
4 | GST-NI3-5, wild type CD4 sequence attached with a glycine-serine-rich linker of 12 residues to Hck-SH3 (VSWSPD) (from UniProt P01730 419-458; P08631-1 78-138) (designed binder) | 64 nM | -8.22 kcal/mol | 1.06 | 
5 | GST-NI3-8, CD4 cytoplasmic tail shortened to 23 residues fused N-terminally to Hck-SH3 (VSWSPD) (from UniProt P01730 419-458; P08631-1 78-138) (designed binder) | 107 nM | -8.2 kcal/mol | 0.93 | 
6 | GST-NI3-9, Hck-SH3 (VSWSPD) - polyGly linker - CD4 cytoplasmic tail (from UniProt P08631-1;P01730) (designed binder) |  |  |  | Kd [2]: 1170 nM; dH [2]: -4.1 kcal/mol; stoichiometry N [2]: 0.85; Kd [3]: 26 nM; dH [3]: -11.4 kcal/mol; stoichiometry N [3]: 0.97
7 | GST-NI3-10, Hck-SH3 (VSWSPD) - linker - CD4 cytoplasmic tail with the two cysteines mutated (from UniProt P08631-1 78-138; P01730 419-458) (designed binder) | 27 nM | -11.5 kcal/mol | 1.03 | 
8 | GST-NI3-13, Hck-SH3 (VSWSPD) - linker - CD4 cytoplasmic tail truncated before the cysteines (from UniProt P08631-1 79-138; P01730 419-458) (designed binder) | 41 nM | -7.04 kcal/mol | 0.98 | Kd [4]: 51 nM; dH [4]: -12.2 kcal/mol; stoichiometry N [4]: 1; Kd [5]: 96 nM; dH [5]: -16.1 kcal/mol; stoichiometry N [5]: 1.06; Kd [6]: 149 nM; dH [6]: -13.8 kcal/mol; stoichiometry N [6]: 0.98
9 | HIV-1 NefSF2 (Δ1-44), C210A (from UniProt P03407 45-210) (domain or fragment) |  |  |  | Kd [7]: 28 nM
10 | HIV-1 NefSF2 wild type, full length (1-210), C210A (from UniProt P03407) (natural protein) |  |  |  | Kd [8]: 37 nM
